Measured values: PMC7736784 (2020)

The binders below were run against Sso7d-NanoLuc large fragment fusion.

Question: With GVTGWRLCERILA [NS6] as the binder, how does the Kd read?
Answer: Its Kd is 900 nM.

Question: For NVSGWRLFKKISN [NS5-Stoffel fusion (NanoLuc small fragment NS5)], which Kd is on record?
Answer: The Kd was 3.4 nM.

Question: With NVTGYRLFKKISN [NS4] as the binder, how does the Kd read?
Answer: Its Kd is 8.5 nM.
